Reference: IntAct's records for PubMed 31515488

B1: Microtubule-associated tumor suppressor candidate 2 (Homo sapiens), Q5JR59-3 (parent)
chain: MGHCCCKPYNCLQCLDKTNESALVKEKELSIELANIRDEVAFHTAKCEKLQKEKEELERRFEDEVKRLGWQQQAELQELEERLQLQFEAEMARLQEEHGDQLLSIRCQHQEQVEDLTASHDAALLEMENNHTVAITILQDDHDHKVQELMSTHELEKKELEENFEKLRLSLQDQVDTLTFQSQSLRDRARRFEEALRKNTEEQLEIALAPYQHLEEDMKSLKQVLEMKNQQIHEQEKKILELEKLAEKNIILEEKIQVLQQQNEDLKARIDQNTVVTRQLSEENANLQEYVEKETQEKKRLSRTNEELLWKLQTGDPTSPIKLSPTSPVYRGSSSGPSSPARVSTTPR
partner: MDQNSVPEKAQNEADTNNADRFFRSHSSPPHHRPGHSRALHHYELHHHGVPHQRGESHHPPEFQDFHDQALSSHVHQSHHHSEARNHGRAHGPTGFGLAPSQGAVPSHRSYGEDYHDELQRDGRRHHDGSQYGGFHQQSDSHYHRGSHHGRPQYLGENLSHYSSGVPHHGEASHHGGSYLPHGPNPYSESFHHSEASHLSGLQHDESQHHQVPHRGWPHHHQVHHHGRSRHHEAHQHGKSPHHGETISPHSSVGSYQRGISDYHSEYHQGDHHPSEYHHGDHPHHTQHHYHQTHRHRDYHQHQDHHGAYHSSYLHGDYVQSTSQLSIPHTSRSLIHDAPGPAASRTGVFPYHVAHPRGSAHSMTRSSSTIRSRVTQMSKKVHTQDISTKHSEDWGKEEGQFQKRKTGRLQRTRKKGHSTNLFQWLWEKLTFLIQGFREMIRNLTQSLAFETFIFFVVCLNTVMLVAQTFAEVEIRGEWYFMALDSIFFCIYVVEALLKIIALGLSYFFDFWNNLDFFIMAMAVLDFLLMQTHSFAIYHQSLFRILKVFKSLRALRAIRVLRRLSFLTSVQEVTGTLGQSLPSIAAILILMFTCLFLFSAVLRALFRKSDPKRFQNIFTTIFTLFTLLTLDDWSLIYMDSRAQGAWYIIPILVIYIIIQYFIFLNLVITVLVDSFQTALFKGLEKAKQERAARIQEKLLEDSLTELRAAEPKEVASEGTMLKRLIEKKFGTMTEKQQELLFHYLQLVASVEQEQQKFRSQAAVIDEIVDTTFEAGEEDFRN
B2: E3 ubiquitin-protein ligase LNX (Homo sapiens), Q8TBB1 (parent)
chain: MNQPESANDPEPLCAVCGQAHSLEENHFYSYPEEVDDDLICHICLQALLDPLDTPCGHTYCTLCLTNFLVEKDFCPMDRKPLVLQHCKKSSILVNKLLNKLLVTCPFREHCTQVLQRCDLEHHFQTSCKGASHYGLTKDRKRRSQDGCPDGCASLTATAPSPEVSAAATISLMTDEPGLDNPAYVSSAEDGQPAISPVDSGRSNRTRARPFERSTIRSRSFKKINRALSVLRRTKSGSAVANHADQGRENSENTTAPEVFPRLYHLIPDGEITSIKINRVDPSESLSIRLVGGSETPLVHIIIQHIYRDGVIARDGRLLPGDIILKVNGMDISNVPHNYAVRLLRQPCQVLWLTVMREQKFRSRNNGQAPDAYRPRDDSFHVILNKSSPEEQLGIKLVRKVDEPGVFIFNVLDGGVAYRHGQLEENDRVLAINGHDLRYGSPESAAHLIQASERRVHLVVSRQVRQRSPDIFQEAGWNSNGSWSPGPGERSNTPKPLHPTITCHEKVVNIQKDPGESLGMTVAGGASHREWDLPIYVISVEPGGVISRDGRIKTGDILLNVDGVELTEVSRSEAVALLKRTSSSIVLKALEVKEYEPQEDCSSPAALDSNHNMAPPSDWSPSWVMWLELPRCLYNCKDIVLRRNTAGSLGFCIVGGYEEYNGNKPFFIKSIVEGTPAYNDGRIRCGDILLAVNGRSTSGMIHACLARLLKELKGRITLTIVSWPGTFL
partner: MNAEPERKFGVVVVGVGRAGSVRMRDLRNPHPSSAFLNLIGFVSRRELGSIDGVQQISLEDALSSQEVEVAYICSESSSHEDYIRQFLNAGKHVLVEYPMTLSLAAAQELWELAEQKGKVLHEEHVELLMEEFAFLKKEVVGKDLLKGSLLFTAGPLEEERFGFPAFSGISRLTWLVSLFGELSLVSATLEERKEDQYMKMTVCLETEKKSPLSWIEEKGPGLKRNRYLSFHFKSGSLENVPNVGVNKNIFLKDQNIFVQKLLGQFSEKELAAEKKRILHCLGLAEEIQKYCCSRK
B3: E3 ubiquitin-protein ligase DZIP3 (Homo sapiens), Q86Y13 (parent)
chain: MDSLPDEFFVRHPAVEDQRKEETENKLEKSSGQLNKQENDIPTDLVPVNLLLEVKKLLNAINTLPKGVVPHIKKFLQEDFSFQTMQREVAANSQNGEEIVPALTLRFLITQLEAALRNIQAGNYTAHQINIGYYLTLLFLYGVALTERGKKEDYTEAENKFLVMKMMIQENEICENFMSLVYFGRGLLRCAQKRYNGGLLEFHKSLQEIGDKNDHWFDIDPTEDEDLPTTFKDLLNNFIKTTESNIMKQTICSYLDCERSCEADILKNTSYKGFFQLMCSKSCCVYFHKICWKKFKNLKYPGENDQSFSGKKCLKEGCTGDMVRMLQCDVPGIVKILFEVVRKDEYITIENLGASYRKLISLKITDTDIRPKISLKFNTKDEMPIFKLDYNYFYHLLHIIIISGTDIVRQIFDEAMPPPLLKKELLIHKNVLESYYNHLWTNHPLGGSWHLLYPPNKELPQSKQFDLCLLLALIKHLNVFPAPKKGWNMEPPSSDISKSADILRLCKYRDILLSEILMNGLTESQFNSIWKKVSDILLRLGMMQEDIDKVKENPIENISLDYHQLSVYLGIPVPEIIQRMLSCYQQGIALQSITGSQRIEIEELQNEEEELSPPLMEYNINVKSHPEIQFAEINKDGTSIPSESSTESLKDLQEVKSKQRKKKKTKNKKNKDSKEDQVPYVVEKEEQLRKEQANPHSVSRLIKDDASDVQEDSAMEDKFYSLDELHILDMIEQGSAGKVTTDYGETEKERLARQRQLYKLHYQCEDFKRQLRTVTFRWQENQMQIKKKDKIIASLNQQVAFGINKVSKLQRQIHAKDNEIKNLKEQLSMKRSQWEMEKHNLESTMKTYVSKLNAETSRALTAEVYFLQCRRDFGLLHLEQTEKECLNQLARVTHMAASNLESLQLKAAVDSWNAIVADVRNKIAFLRTQYNEQINKVKQGFALSTLPPVQLPPPPPSPEILMQQFLGRPLVKESFFRPILTVPQMPAVCPGVVSATGQPRAPLMTGIAWALPAPVGDAVPPSAGLRSDPSIMNWERITDRLKTAFPQQTRKELTDFLRKLKDAYGKSLSELTFDEIVCKISQFIDPKKSQSQGKSVSNVNCVSPSHSPSQPDAAQPPKPAWRPLTSQGPATWEGASNPDEEEEEEEPCVICHENLSPENLSVLPCAHKFHAQCIRPWLMQQGTCPTCRLHVLLPEEFPGHPSRQLPKI
B4: Grancalcin (Homo sapiens), P28676 (parent)
chain: MAYPGYGGGFGNFSIQVPGMQMGQPVPETGPAILLDGYSGPAYSDTYSSAGDSVYTYFSAVAGQDGEVDAEELQRCLTQSGINGTYSPFSLETCRIMIAMLDRDHTGKMGFNAFKELWAALNAWKENFMTVDQDGSGTVEHHELRQAIGLMGYRLSPQTLTTIVKRYSKNGRIFFDDYVACCVKLRALTDFFRKRDHLQQGSANFIYDDFLQGTMAI
partner: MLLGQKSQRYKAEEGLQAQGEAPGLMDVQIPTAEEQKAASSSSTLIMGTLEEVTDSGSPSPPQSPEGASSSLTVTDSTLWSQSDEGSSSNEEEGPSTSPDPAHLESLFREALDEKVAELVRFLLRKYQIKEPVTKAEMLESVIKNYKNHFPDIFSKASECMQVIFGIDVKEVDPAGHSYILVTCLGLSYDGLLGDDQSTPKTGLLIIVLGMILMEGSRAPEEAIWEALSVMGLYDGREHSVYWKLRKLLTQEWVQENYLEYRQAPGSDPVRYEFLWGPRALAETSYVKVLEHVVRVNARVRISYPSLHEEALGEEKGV
B5: Ubiquitin-conjugating enzyme E2 E3 (Homo sapiens), Q969T4 (parent)
chain: MSSDRQRSDDESPSTSSGSSDADQRDPAAPEPEEQEERKPSATQQKKNTKLSSKTTAKLSTSAKRIQKELAEITLDPPPNCSAGPKGDNIYEWRSTILGPPGSVYEGGVFFLDITFSSDYPFKPPKVTFRTRIYHCNINSQGVICLDILKDNWSPALTISKVLLSICSLLTDCNPADPLVGSIATQYLTNRAEHDRIARQWTKRYAT
B6: Phosphatidylinositol-3-phosphate phosphatase MTMR7 (Homo sapiens), Q9Y216 (parent)
chain: MEHIRTPKVENVRLVDRVSPKKAALGTLYLTATHVIFVENSPDPRKETWILHSQISTIEKQATTATGCPLLIRCKNFQIIQLIIPQERDCHDVYISLIRLARPVKYEELYCFSFNPMLDKEEREQGWVLIDLSEEYTRMGLPNHYWQLSDVNRDYRVCDSYPTELYVPKSATAHIIVGSSKFRSRRRFPVLSYYYKDNHASICRSSQPLSGFSARCLEDEQMLQAIRKANPGSDFVYVVDTRPKLNAMANRAAGKGYENEDNYSNIKFQFIGIENIHVMRNSLQKMLEVCELKSPSMSDFLWGLENSGWLRHIKAIMDAGIFIAKAVSEEGASVLVHCSDGWDRTAQVCSVASLLLDPHYRTLKGFMVLIEKDWISFGHKFNHRYGNLDGDPKEISPVIDQFIECVWQLMEQFPCAFEFNERFLIHIQHHIYSCQFGNFLCNSQKERRELKIQERTYSLWAHLWKNRADYLNPLFRADHSQTQGTLHLPTTPCNFMYKFWSGMYNRFEKGMQPRQSVTDYLMAVKEETQQLEEELEALEERLEKIQKVQLNCTKVKSKQSEPSKHSGFSTSDNSIANTPQDYSGNMKSFPSRSPSQGDEDSALILTQDNLKSSDPDLSANSDQESGVEDLSCRSPSGGEHAPSEDSGKDRDSDEAVFLTA
partner: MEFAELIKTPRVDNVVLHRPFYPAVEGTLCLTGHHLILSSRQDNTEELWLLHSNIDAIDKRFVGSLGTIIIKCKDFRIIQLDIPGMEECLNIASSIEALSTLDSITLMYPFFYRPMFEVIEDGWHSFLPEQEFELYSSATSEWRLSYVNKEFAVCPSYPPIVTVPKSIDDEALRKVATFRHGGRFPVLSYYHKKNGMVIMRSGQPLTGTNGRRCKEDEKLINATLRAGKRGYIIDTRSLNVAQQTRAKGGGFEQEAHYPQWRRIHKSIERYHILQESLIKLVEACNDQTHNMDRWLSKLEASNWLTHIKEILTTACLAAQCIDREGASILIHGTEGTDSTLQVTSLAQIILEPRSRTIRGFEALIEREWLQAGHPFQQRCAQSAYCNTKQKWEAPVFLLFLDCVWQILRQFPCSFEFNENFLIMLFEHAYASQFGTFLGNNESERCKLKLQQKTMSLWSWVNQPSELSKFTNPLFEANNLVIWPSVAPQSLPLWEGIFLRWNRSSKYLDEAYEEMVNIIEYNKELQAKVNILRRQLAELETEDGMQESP
B7: Four and a half LIM domains protein 5 (Homo sapiens), Q5TD97 (parent)
chain: MTTAHFYCQYCTASLLGKKYVLKDDSPYCVTCYDRVFSNYCEECKKPIESDSKDLCYKDRHWHEGCFKCTKCNHSLVEKPFAAKDERLLCTECYSNECSSKCFHCKRTIMPGSRKMEFKGNYWHETCFVCENCRQPIGTKPLISKESGNYCVPCFEKEFAHYCNFCKKVITSGGITFCDQLWHKECFLCSGCRKDLCEEQFMSRDDYPFCVDCYNHLYANKCVACSKPISGLTGAKFICFQDSQWHSECFNCGKCSVSLVGKGFLTQNKEIFCQKCGSGMDTDI
partner: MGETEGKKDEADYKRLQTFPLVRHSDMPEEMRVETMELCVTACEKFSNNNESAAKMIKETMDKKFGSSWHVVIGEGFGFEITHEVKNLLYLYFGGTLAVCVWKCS

Variants of: B1
Details: with ctsr1_human CATSPER1, Q8NEC5

Variant	effect of a mutation on the interaction
A89V	with no effect

Variants of: B2
Details: with biea_human BLVRA

Variant	effect of a mutation on the interaction
R342H	with no effect

Variants of: B3
Details: with ub2e2_human UBE2E2, Q96LR5
ub2e2_human UBE2E2, Q96LR5, sequence (Q96LR5 whole entry): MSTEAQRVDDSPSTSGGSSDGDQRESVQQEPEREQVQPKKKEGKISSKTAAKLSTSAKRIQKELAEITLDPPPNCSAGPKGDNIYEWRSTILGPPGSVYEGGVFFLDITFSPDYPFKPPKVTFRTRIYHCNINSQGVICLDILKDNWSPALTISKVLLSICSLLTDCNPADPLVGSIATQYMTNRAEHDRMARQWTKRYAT

Variant	effect of a mutation on the interaction
F767L	with no effect

Variants of: B3
Details: with zch10_human ZCCHC10, Q8TBK6
zch10_human ZCCHC10, Q8TBK6, sequence (Q8TBK6 whole entry): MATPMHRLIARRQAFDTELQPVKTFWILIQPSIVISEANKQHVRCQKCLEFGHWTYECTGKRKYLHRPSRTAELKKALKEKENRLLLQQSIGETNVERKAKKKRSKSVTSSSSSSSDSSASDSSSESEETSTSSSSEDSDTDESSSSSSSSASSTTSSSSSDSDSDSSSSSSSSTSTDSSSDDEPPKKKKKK

Variant	effect of a mutation on the interaction
F767L	with no effect

Variants of: B4
Details: with maga8_human MAGEA8, P43361

Variant	effect of a mutation on the interaction
S80A	disrupting interaction strength
K115R	disrupting interaction strength

Variants of: B5
Details: with rnf5_human RNF5, Q99942
rnf5_human RNF5, Q99942, sequence (Q99942 whole entry): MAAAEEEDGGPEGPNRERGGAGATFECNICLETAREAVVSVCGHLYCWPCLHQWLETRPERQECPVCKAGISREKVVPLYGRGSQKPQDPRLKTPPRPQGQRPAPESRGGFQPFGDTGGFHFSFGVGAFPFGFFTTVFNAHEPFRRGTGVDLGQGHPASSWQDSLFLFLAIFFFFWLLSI

Variant	effect of a mutation on the interaction
S117T	with no effect

Variants of: B6
Details: with mtmr9_human MTMR9, Q96QG7

Variant	effect of a mutation on the interaction
M522T	with no effect

Variants of: B7
Details: with dnal4_human DNAL4, O96015

Variant	effect of a mutation on the interaction
R204G	with no effect
D24Y	with no effect
R60W	with no effect
